Source: paper PMC5663463 (Protein expression and purification, 2012)

Biological target: the molecule itself
Test: SEC

B1: native (cleaved) Staphylococcus aureus dihydroorotase (PyrC) (enzyme)
chain: GPMKLIKNGKVLQNGELQQADILIDGKVIKQIAPAIEPSNGVDIIDAKGHFVSPGFVDVHVHLREPGGEYKETIETGTKAAARGGFTTVCPMPNTRPVPDSVEHFEALQKLIDDNAQVRVLPYASITTRQLGKELVDFPALVKEGAFAFTDDGVGVQTASMMYEGMIEAAKVNKAIVAHCEDNSLIYGGAMHEGKRSKELGIPGIPNICESVQIARDVLLAEAAGCHYHVCHVSTKESVRVIRDAKRAGIHVTAEVTPHHLLLTEDDIPGNNAIYKMNPPLRSTEDREALLEGLLDGTIDCIATDHAPHARDEKAQPMEKAPFGIVGSETAFPLLYTHFVKNGDWTLQQLVDYLTIKPCETFNLEYGTLKENGYADLTIIDLDSEQEIKGEDFLSKADNTPFIGYKVYGNPILTMVEGEVKFEGDK
  stoichiometry N: 2

B2: His-SUMO tagged Staphylococcus aureus dihydroorotase (PyrC) (enzyme)
chain: LEVLFQGPMKLIKNGKVLQNGELQQADILIDGKVIKQIAPAIEPSNGVDIIDAKGHFVSPGFVDVHVHLREPGGEYKETIETGTKAAARGGFTTVCPMPNTRPVPDSVEHFEALQKLIDDNAQVRVLPYASITTRQLGKELVDFPALVKEGAFAFTDDGVGVQTASMMYEGMIEAAKVNKAIVAHCEDNSLIYGGAMHEGKRSKELGIPGIPNICESVQIARDVLLAEAAGCHYHVCHVSTKESVRVIRDAKRAGIHVTAEVTPHHLLLTEDDIPGNNAIYKMNPPLRSTEDREALLEGLLDGTIDCIATDHAPHARDEKAQPMEKAPFGIVGSETAFPLLYTHFVKNGDWTLQQLVDYLTIKPCETFNLEYGTLKENGYADLTIIDLDSEQEIKGEDFLSKADNTPFIGYKVYGNPILTMVEGEVKFEGDK
  stoichiometry N: 2
